We go through 33 sequences from the supplement of paper PMC7877785.

The data set in a line: self-splicing fitness, log relative to wild type (ln ratio); higher = more splicing; Tetrahymena group I intron in knt gene, E. coli kanamycin selection, DiMSum; sequences stand for … in CUCUCU…GGAGGGAAAAGUUAUCAGGCAUGCACCUGGUAGCUAGUCUUUAAACCAAUAGAUUGCAUCGGUUUAAAAGGCAAGACCGUCAAAUUGCGGGAAAGGGGUCAACAGCCGUUCAGUACCAAGUCUCAGGGGAAACUUUGAGAUGGCCUUGCAAAGGGUAUGGUAAUAAGCUGACGGACAUGGUCCUAACCACGCAGCCAAGUCCUAAGUCAACAGAUCUUCUGUUGAUAUGGAUGCAGUUCACAGACUAAAUGUCGGUCGGGGAAGAUGUAUUCUUCUCAUAAGAUAUAGUCGGACCUCUCCUUAAUGGGAGCUAGCGGAUGAAGUGAUGCAACACUGGAGCCGCUGGGAACUAAUUUGUAUGCGAAAGUAUAUUGAUUAGUUUUGGAGUACUCGUGGUCG
A digest of the protocol:
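Colonies from six replicate transformations of E. coli BL21(DE3) were pooled and amplicon-sequenced on an Illumina HiSeq 2500. The library placed an intron with all eight P1ex-region nucleotides randomised inside the knt kanamycin-resistance gene on pET-22b(+), and cells grew overnight at 37°C or 30°C on LB agar with or without 25 μg/mL kanamycin (plus 100 μg/mL carbenicillin, 50 μM IPTG, 0.2% rhamnose). Fitness is the DiMSum error-weighted combination of wild-type-normalised replicate fold changes, kanamycin versus none.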

± gives the uncertainty stated by the source.

Consider GUAAAGCAAUAUUACGAGGC, for which the “self-splicing fitness (ln)” value runs as follows: (30 °C) -2.91 ± 0.18; (37 °C) -2.44 ± 0.24.

Take GUAAAGCAAUAUUACGAGUG: the “self-splicing fitness (ln)” value by setting is: (30 °C) -1.69 ± 0.059; (37 °C) -0.403 ± 0.08.

GUAAAGCAAUAUUACGCACU: the “self-splicing fitness (ln)” value is, setting by setting: (30 °C) 0.0854 ± 0.099; (37 °C) -0.289 ± 0.12.

For the sequence GUAAAGCAAUAUUACGCGAU, the “self-splicing fitness (ln)” value (30 °C) was -3.23 ± 0.21 and the “self-splicing fitness (ln)” value (37 °C) is -1.42 ± 0.19.

Consider GUAAAGCAAUAUUACGGACU, for which the “self-splicing fitness (ln)” value (30 °C) is -0.753 ± 0.061 and the “self-splicing fitness (ln)” value (37 °C) was -0.471 ± 0.082.

Take GUAAAGCAAUAUUACGGCAA: the “self-splicing fitness (ln)” value was -0.0595 ± 0.1 (30 °C) and -0.0616 ± 0.16 (37 °C).

For GUAAAGCAAUAUUACGGCAC, the “self-splicing fitness (ln)” value came out at 0.217 ± 0.12 (30 °C) and 0.134 ± 0.15 (37 °C).

In the case of GUAAAGCAAUAUUACGGCUG, the “self-splicing fitness (ln)” value by setting is: (30 °C) 0.0741 ± 0.066; (37 °C) 0.175 ± 0.088.

Take GUAAAGCAAUAUUACGGCUU: the “self-splicing fitness (ln)” value is, setting by setting: (30 °C) -0.183 ± 0.11; (37 °C) 0.219 ± 0.14.

Regarding GUAAAGCAAUAUUACGGGCU, the “self-splicing fitness (ln)” value (30 °C) was -1.69 ± 0.069 and the “self-splicing fitness (ln)” value (37 °C) is -1.24 ± 0.11.

For the sequence GUAAAGCAAUAUUACGGUAU, the “self-splicing fitness (ln)” value reads like this: (30 °C) -0.495 ± 0.059; (37 °C) 0.118 ± 0.084.

In the case of GUAAAGCAAUAUUACGUACG, the “self-splicing fitness (ln)” value (30 °C) is -0.843 ± 0.069 and the “self-splicing fitness (ln)” value (37 °C) is -0.015 ± 0.1.

With GUAAAGCAAUAUUACGUAUA, the “self-splicing fitness (ln)” value was -1.53 ± 0.11 (30 °C) and -0.524 ± 0.14 (37 °C).

On to GUAAAGCAAUAUUACGUCCU, for which the “self-splicing fitness (ln)” value (30 °C) is 0.164 ± 0.11 and the “self-splicing fitness (ln)” value (37 °C) turned out to be 0.663 ± 0.16.

Take GUAAAGCAAUAUUACGUCGC: the “self-splicing fitness (ln)” value (30 °C) was -1.35 ± 0.11 and the “self-splicing fitness (ln)” value (37 °C) is -0.63 ± 0.13.

For the sequence GUAAAGCAAUAUUACGUCGU, the “self-splicing fitness (ln)” value by setting is: (30 °C) -0.978 ± 0.091; (37 °C) -0.114 ± 0.14.

On to GUAAAGCAAUAUUACGUCUC, for which the “self-splicing fitness (ln)” value reads like this: (30 °C) 0.704 ± 0.098; (37 °C) 0.129 ± 0.11.

As to GUAAAGCAAUAUUACGUUAC, the “self-splicing fitness (ln)” value by setting is: (30 °C) -1.15 ± 0.14; (37 °C) -1.91 ± 0.21.

Consider GUAAAGCAAUAUUACGUUUC, for which the “self-splicing fitness (ln)” value is -2.07 ± 0.16 (30 °C) and -1.03 ± 0.22 (37 °C).

Turning to GUACAGCAAUAUUACGACAG, the “self-splicing fitness (ln)” value was -3.31 ± 0.24 (30 °C) and -1.94 ± 0.21 (37 °C).

For the sequence GUACAGCAAUAUUACGAUGG, the “self-splicing fitness (ln)” value was -3.3 ± 0.17 (30 °C) and -2.48 ± 0.17 (37 °C).

For GUACAGCAAUAUUACGAUUC, the “self-splicing fitness (ln)” value is -0.318 ± 0.075 (30 °C) and -0.0725 ± 0.11 (37 °C).

Take GUACAGCAAUAUUACGCAAU: the “self-splicing fitness (ln)” value reads like this: (30 °C) -2.58 ± 0.21; (37 °C) -1.87 ± 0.27.

Take GUACAGCAAUAUUACGCCAU: the “self-splicing fitness (ln)” value by setting is: (30 °C) -3.46 ± 0.23; (37 °C) -2.32 ± 0.15.

With GUACAGCAAUAUUACGCGAG, the “self-splicing fitness (ln)” value by setting is: (30 °C) -1.73 ± 0.094; (37 °C) -1.85 ± 0.12.

As to GUACAGCAAUAUUACGCUAC, for the setting “37 °C”, the “self-splicing fitness (ln)” value was -2.64 ± 0.48.

On to GUACAGCAAUAUUACGCUAG, for which the “self-splicing fitness (ln)” value by setting is: (30 °C) -1.88 ± 0.12; (37 °C) -0.374 ± 0.12.

Consider GUACAGCAAUAUUACGCUAU, for which the “self-splicing fitness (ln)” value was -3.82 ± 0.29 (30 °C) and -1.77 ± 0.2 (37 °C).

Consider GUACAGCAAUAUUACGCUUC, for which the “self-splicing fitness (ln)” value by setting is: (30 °C) -2.54 ± 0.19; (37 °C) -2.69 ± 0.26.

For the sequence GUACAGCAAUAUUACGGCCC, the “self-splicing fitness (ln)” value (30 °C) was -0.268 ± 0.088 and the “self-splicing fitness (ln)” value (37 °C) is -0.155 ± 0.11.

In the case of GUACAGCAAUAUUACGGUAU, the “self-splicing fitness (ln)” value (30 °C) is -4.07 ± 0.18 and the “self-splicing fitness (ln)” value (37 °C) was -2.45 ± 0.16.

Take GUACAGCAAUAUUACGGUCU: the “self-splicing fitness (ln)” value (30 °C) is -0.535 ± 0.084 and the “self-splicing fitness (ln)” value (37 °C) was -0.00413 ± 0.11.

In the case of GUACAGCAAUAUUACGUACA, the “self-splicing fitness (ln)” value (30 °C) is -3 ± 0.15 and the “self-splicing fitness (ln)” value (37 °C) was -1.63 ± 0.098.
